This note sets out measurements from US20210238298A1 (ALLIGATOR BIOSCIENCE, published 2021).

Usually Kd stands for a measure of binding affinity in units of concentration. The low end stands for a tighter complex, the high end for a looser complex. The koff is the first-order rate constant of dissociation. Read a low koff as a long-lived complex. The term kon denotes the second-order rate constant of association. Higher therefore signals fast association. The EC50 (read off the curve) is the concentration at which the effect is half-maximal. The low end stands for a more potent agent, the high end for a less potent agent. Usually EC50 stands for the midpoint of the concentration-response curve. Read a high EC50 as a need for much substance.

In one assay the target is T1, murine OX40 (murine, UniProt P47741 20-211, limits assumed).
T1 sequence (looked up): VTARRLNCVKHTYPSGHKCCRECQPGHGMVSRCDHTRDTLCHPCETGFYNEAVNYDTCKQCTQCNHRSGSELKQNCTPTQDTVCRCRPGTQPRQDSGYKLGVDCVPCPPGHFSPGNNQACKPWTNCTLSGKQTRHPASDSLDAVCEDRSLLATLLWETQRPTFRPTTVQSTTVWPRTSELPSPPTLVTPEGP
As to the kind of experiment: ELISA. For orientation: In an ELISA, binding on a coated surface is turned into a signal by an enzyme label.

Another assay addresses T2, CD40 (Ancell) (UniProt P25942 21-193).
T2 construct: also called CD40-Fc (Ancell #504-820); not shown: Fc part, not described
As to the kind of experiment: ELISA.

Assay [1] has as its target T3, recombinant human CD137-Fc (R&D #838-4B) (human, UniProt Q07011 24-186).
T3 construct: Bought; also called Human CD137 (R&D systems); CD137 (R&D Systems); not shown: Fc part, not described
The assay is described as follows: ELISA.

The target of assay [2] is T4, OX40 chimera 1549: human OX40 with mouse domains 1A and 4B and non-annotated extracellular region (aa 30-65 … (human; mouse, UniProt P47741 26-61; P47741 125-211).
T4 construct: domain: 1A;domain: 4B and non-annotated extracellular region; Limits derived as for 1544
T4 sequence: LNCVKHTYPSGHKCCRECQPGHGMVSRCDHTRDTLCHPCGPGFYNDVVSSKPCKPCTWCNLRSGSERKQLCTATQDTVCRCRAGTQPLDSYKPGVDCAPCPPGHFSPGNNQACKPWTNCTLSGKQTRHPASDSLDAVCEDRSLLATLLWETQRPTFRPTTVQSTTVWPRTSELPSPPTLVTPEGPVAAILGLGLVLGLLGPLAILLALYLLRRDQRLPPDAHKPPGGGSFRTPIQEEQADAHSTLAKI
The assay is described as follows: flow cytometry, 293-F transfectants. (In general: A flow cytometer gives signals particle by particle.)

Assay [3] concerns the target T5, Human OX40 (R&D systems, #3358_OX) (human, UniProt P43489 29-216).
T5 construct: Bought; Several catalogue numbers are given for it; also called human OX40 (R&D Systems, 3388-OX); OX40-Fc (R&D systems, #3358_OX); not shown: Fc part
T5 sequence: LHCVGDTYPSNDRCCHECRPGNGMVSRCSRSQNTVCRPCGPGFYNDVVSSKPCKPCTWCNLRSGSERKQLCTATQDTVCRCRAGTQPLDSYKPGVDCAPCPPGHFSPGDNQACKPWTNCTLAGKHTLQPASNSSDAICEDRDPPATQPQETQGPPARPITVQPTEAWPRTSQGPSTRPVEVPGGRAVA
As to the kind of experiment: SPR (Biacore), immobilised human OX40. On the procedure:
Human OX40 (R&D systems, #3358_OX) was immobilized to the Biacore™ sensor chip, CM5, using conventional amine coupling. The tested antibodies and controls (serially diluted ⅓ or ½ 100-2 nM) were analyzed for binding in HBS-P (GE, #BR-1003-68) at a flow rate of […]. The association was followed for 3 minutes and the dissociation for 20 minutes. Regeneration was performed twice using 50 mM NaOH for 60 seconds. The kinetic parameters and the affinity constants were calculated using 1:1 Langmuir model with drifting baseline. […] The kinetic parameters and the affinity constants were calculated using BIAevaluation 4.1 software.
In general terms: Surface plasmon resonance follows binding to a sensor surface in real time, without labels.

In assay [4] the target is T6, extracellular part of human OX40 fused to the transmembrane and intracellular part of hCD40, on CHO cells (human, UniProt P25942 194-277, limits assumed).
T6 construct: domain: transmembrane and intracellular part; also called hOX40 overexpressed on CHO cells; huOX40 (CHO)
T6 sequence: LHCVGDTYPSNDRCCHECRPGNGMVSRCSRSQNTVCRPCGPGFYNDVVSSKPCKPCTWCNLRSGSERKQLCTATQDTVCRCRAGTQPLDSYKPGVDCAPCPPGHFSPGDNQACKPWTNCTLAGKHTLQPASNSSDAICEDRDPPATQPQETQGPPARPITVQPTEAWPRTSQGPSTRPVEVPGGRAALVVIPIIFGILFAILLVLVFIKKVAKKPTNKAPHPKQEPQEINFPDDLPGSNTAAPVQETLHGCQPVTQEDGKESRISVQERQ
The assay is described as follows: flow cytometry, CHO cells with human OX40 (extracellular part on hCD40 transmembrane and intracellular part), anti-huIgG-PE. On the procedure: The extracellular part of human OX40 was fused to the transmembrane and intracellular part of hCD40 and cloned into pcDNA3.0. The vector was subsequently stably transfected into CHO cells. […] For the assay, the transfected cells were incubated with the test antibodies and controls for 30 min at 4° C. and then detected with a-huIgG-PE (Jackson Immunoresearch) 30 min 4° C. Cells were analyzed by flow cytometry with FACS Verse (BD Biosciences).

Assay [5] has as its target extracellular part of OX40 from Macaca mulatta fused to the transmembrane and intracellular part of hCD40, on … (Macaca mulatta; human, UniProt A0A5F7ZKD5 21-541; P25942 194-277). The assay is described as follows: flow cytometry, macOX40-HEK cells; 95% confidence interval. On the procedure: (§1) For the assay, the transfected cells were incubated with the test antibodies and controls for 30 min at 4° C. and then detected with a-huIgG-PE (Jackson Immunoresearch) 30 min 4° C. Cells were analyzed by flow cytometry with FACS Verse (BD Biosciences).

Assay [6] deals with T6, extracellular part of human OX40 fused …. The assay is described as follows: flow cytometry, cells with human OX40; 95% confidence interval. On the procedure: as §1

T2 sequence (P25942 21-193 limits assumed): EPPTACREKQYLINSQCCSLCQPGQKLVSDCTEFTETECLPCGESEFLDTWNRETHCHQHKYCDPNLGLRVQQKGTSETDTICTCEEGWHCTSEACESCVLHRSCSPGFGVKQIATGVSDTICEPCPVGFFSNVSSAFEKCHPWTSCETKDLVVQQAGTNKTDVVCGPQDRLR
T3 sequence (Q07011 24-186 limits assumed): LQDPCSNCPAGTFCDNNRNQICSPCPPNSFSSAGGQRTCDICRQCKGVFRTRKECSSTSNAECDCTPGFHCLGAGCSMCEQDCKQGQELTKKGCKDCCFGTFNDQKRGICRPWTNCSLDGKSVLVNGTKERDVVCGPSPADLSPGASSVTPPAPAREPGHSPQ

B1: anti-OX40 antibody 1524/1525 (antibody, V domains shown)
VH: EVQLLESGGGLVQPGGSLRLSCAASGFTFGSYYMGWVRQAPGKGLEWVSSIGSYYGYTYYADSVKGRFTISRDNSKNTLYLQMNSLRAEDTAVYYCARHDYGALDYWGQGTLVTVSS
VL: DIQMTQSPSSLSASVGDRVTITCRASQSISSYLNWYQQKPGKAPKLLIYAASSLQSGVPSRFSGSGSGTDFTLTISSLQPEDFATYYCQQYGPSGLFTFGQGTKLEIK
notes: Tested as IgG
Consider B1, for which the binding result with murine OX40 is recorded as “no binding”. Moreover, the binding result with CD40 (Ancell) is recorded as “no binding”. The binding result in assay [1] was “no binding”. Also, the “relative MFI vs isotype control” value in assay [2] was determined as 11.2. In assay [3], this molecule showed a Kd of 0.811 nM, an off-rate constant (koff) of 0.00139 s⁻¹ and a kon of 1.71e+06 M⁻¹ s⁻¹. In assay [4], the 50% effective concentration (EC50 (read off the curve)) was approximately 0.05 µg/mL.

B2: anti-OX40 antibody 1526/1527 (antibody, V domains shown)
VH: EVQLLESGGGLVQPGGSLRLSCAASGFTFSGYSMYWVRQAPGKGLEWVSGIGYSGYGTYYADSVKGRFTISRDNSKNTLYLQMNSLRAEDTAVYYCARYYFHDYAAYSLDYWGQGTLVTVSS
VL: DIQMTQSPSSLSASVGDRVTITCRASQSISSYLNWYQQKPGKAPKLLIYAASSLQSGVPSRFSGSGSGTDFTLTISSLQPEDFATYYCQQYGSDSLLTFGQGTKLEIK
notes: Tested as IgG
For B2, the binding result (in the assay with murine OX40; with CD40 (Ancell); in assay [1]) was “no binding” each time. Moreover, the “relative MFI vs isotype control” value in assay [2] turned out to be 8.5. Moreover, the Kd in assay [3] turned out to be 0.43 nM. Besides, the koff in assay [3] amounted to 0.000187 s⁻¹. Besides, the kon in assay [3] stood at 435000 M⁻¹ s⁻¹. The EC50 in assay [5] was in the range of 0.292 to 0.589 µg/mL; in assay [6], 0.172 to 0.429 µg/mL.

B3: anti-OX40 antibody 1482/1483 (antibody, V domains shown)
VH: EVQLLESGGGLVQPGGSLRLSCAASGFTFSSYAMSWVRQAPGKGLEWVSYISYYSGYTYYADSVKGRFTISRDNSKNTLYLQMNSLRAEDTAVYYCARGYGYLDYWGQGTLVTVSS
VL: DIQMTQSPSSLSASVGDRVTITCRASQSISSYLNWYQQKPGKAPKLLIYAASSLQSGVPSRFSGSGSGTDFTLTISSLQPEDFATYYCQQYGSLLTFGQGTKLEIK
notes: Tested as IgG
Consider B3, for which the binding result (with murine OX40; with CD40 (Ancell); in assay [1]) was “no binding” throughout. Further, the “relative MFI vs isotype control” value in assay [2] was found to be 8.7. The same molecule gave a Kd in assay [3] of 0.753 nM. In assay [3], the koff was 0.000584 s⁻¹. Moreover, in assay [3], the association rate constant (kon) was determined as 776000 M⁻¹ s⁻¹. In addition, the EC50 lay in the range of 0.157 to 0.312 µg/mL in assay [5] and 0.082 to 0.182 µg/mL in assay [6].

B4: anti-OX40 antibody 1168/1135 (antibody, V domains shown)
VH: EVQLLESGGGLVQPGGSLRLSCAASGFTFSGSSMSWVRQAPGKGLEWVSSISYYGGYTYYADSVKGRFTISRDNSKNTLYLQMNSLRAEDTAVYYCARYFPHYYFDYWGQGTLVTVSS
VL: not shown
notes: Tested as IgG
With B4, the binding result (with murine OX40; with CD40 (Ancell); in assay [1]) was “no binding” throughout. Moreover, binding in assay [3] was put at a Kd of 0.327 nM. The koff in assay [3] is 0.000169 s⁻¹. Besides, the kon in assay [3] amounted to 518000 M⁻¹ s⁻¹. The EC50 in assay [5] is 0.0905 to 0.194 µg/mL; in assay [6], 0.0636 to 0.131 µg/mL.

B5: anti-OX40 antibody 1164/1135 (antibody, V domains shown)
VH: EVQLLESGGGLVQPGGSLRLSCAASGFTFYGSSMYWVRQAPGKGLEWVSGIYSSGGYTSYADSVKGRFTISRDNSKNTLYLQMNSLRAEDTAVYYCARGVPHGYFDYWGQGTLVTVSS
VL: not shown
notes: Tested as IgG
In the case of B5, the binding result with murine OX40 is “no binding”. The binding result with CD40 (Ancell) was “no binding”. Also, the binding result in assay [1] is on record as “no binding”. In assay [3], this molecule showed an equilibrium dissociation constant (Kd) of 0.308 nM, a koff of 7.73e-05 s⁻¹ and a kon of 251000 M⁻¹ s⁻¹. Further, in assay [4], the “EC50 (read off the curve)” value is approximately 0.01 µg/mL.

B6: anti-OX40 antibody 1542/1135 (antibody, V domains shown)
VH: EVQLLESGGGLVQPGGSLRLSCAASGFTFGSSSMYWVRQAPGKGLEWVSGIGYYSYSTSYADSVKGRFTISRDNSKNTLYLQMNSLRAEDTAVYYCARGYPHHYFDYWGQGTLVTVSS
VL: not shown
notes: Tested as IgG
Take B6: the binding result (with murine OX40; in the assay with CD40 (Ancell); in assay [1]) was “no binding” each time. Moreover, in assay [2], the “relative MFI vs isotype control” value is 13. Besides, in assay [3], the Kd was 0.463 nM. In assay [3], this molecule had a koff of 0.0001 s⁻¹. This molecule came in with a kon in assay [3] of 216000 M⁻¹ s⁻¹. In addition, the EC50 in assay [5] fell in the range of 0.722 to 1.41 µg/mL; in assay [6], 0.322 to 0.552 µg/mL.
